Molecular target: T1, human VWF-A2 fragment
T1 chain: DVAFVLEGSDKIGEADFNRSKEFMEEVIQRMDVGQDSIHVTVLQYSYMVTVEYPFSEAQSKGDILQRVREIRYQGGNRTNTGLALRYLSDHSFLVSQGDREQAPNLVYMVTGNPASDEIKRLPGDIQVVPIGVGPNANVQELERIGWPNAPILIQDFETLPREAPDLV
Assay: microscale thermophoresis
Set-up: unit not given beside the values
Conditions: chain shown with the change;; parent: est. 6.2e-9; read off a plot

B1: human recombinant wild-type complement factor H, P08603 W1183R (protein)
chain: EDCNELPPRRNTEILTGSWSDQTYPEGTQAIYKCRPGYRSLGNVIMVCRKGEWVALNPLRKCQKRPCGHPGDTPFGTFTLTGGNVFEYGVKAVYTCNEGYQLLGEINYRECDTDGWTNDIPICEVVKCLPVTAPENGKIVSSAMEPDREYHFGQAVRFVCNSGYKIEGDEEMHCSDDGFWSKEKPKCVEISCKSPDVINGSPISQKIIYKENERFQYKCNMGYEYSERGDAVCTESGWRPLPSCEEKSCDNPYIPNGDYSPLRIKHRTGDEITYQCRNGFYPATRGNTAKCTSTGWIPAPRCTLKPCDYPDIKHGGLYHENMRRPYFPVAVGKYYSYYCDEHFETPSGSYWDHIHCTQDGWSPAVPCLRKCYFPYLENGYNQNYGRKFVQGKSIDVACHPGYALPKAQTTVTCMENGWSPTPRCIRVKTCSKSSIDIENGFISESQYTYALKEKAKYQCKLGYVTADGETSGSITCGKDGWSAQPTCIKSCDIPVFMNARTKNDFTWFKLNDTLDYECHDGYESNTGSTTGSIVCGYNGWSDLPICYERECELPKIDVHLVPDRKKDQYKVGEVLKFSCKPGFTIVGPNSVQCYHFGLSPDLPICKEQVQSCGPPPELLNGNVKEKTKEEYGHSEVVEYYCNPRFLMKGPNKIQCVDGEWTTLPVCIVEESTCGDIPELEHGWAQLSSPPYYYGDSVEFNCSESFTMIGHRSITCIHGVWTQLPQCVAIDKLKKCKSSNLIILEEHLKNKKEFDHNSNIRYRCRGKEGWIHTVCINGRWDPEVNCSMAQIQLCPPPPQIPNSHNMTTTLNYRDGEKVSVLCQENYLIQEGEEITCKDGRWQSIPLCVEKIPCSQPPQIEHGTINSSRSSQESYAHGTKLSYTCEGGFRISEENETTCYMGKWSSPPQCEGLPCKSPPEISHGVVAHMSDSYQYGEEVTYKCFEGFGIDGPAIAKCLGEKWSHPPSCIKTDCLSLPSFENAIPMGEKKDVYKAGEQVTYTCATYYKMDGASNVTCINSRWTGRPTCRDTSCVNPPTVQNAYIVSRQMSKYPSGERVRYQCRSPYEMFGDEEVMCLNGNWTEPPQCKDSTGKCGPPPPIDNGDITSFPLSVYAPASSVEYQCQNLYQLEGNKRITCRNGQWSEPPKCLHPCVISREIMENYNIALRRTAKQKLYSRTGESVEFVCKRGYRLSSRSHTLRTTCWDGKLEYPTCAKR
**Q.** With B1 as the binder, how does the EC50 read?
**A.** Its EC50 is 2.3e-09.

— article PMC13123425
